Molecular target: human CD40 receptor (hCD40) (human, UniProt P25942 21-277)
Assay: BLI

Chain of human CD40 receptor (hCD40) (P25942 21-277): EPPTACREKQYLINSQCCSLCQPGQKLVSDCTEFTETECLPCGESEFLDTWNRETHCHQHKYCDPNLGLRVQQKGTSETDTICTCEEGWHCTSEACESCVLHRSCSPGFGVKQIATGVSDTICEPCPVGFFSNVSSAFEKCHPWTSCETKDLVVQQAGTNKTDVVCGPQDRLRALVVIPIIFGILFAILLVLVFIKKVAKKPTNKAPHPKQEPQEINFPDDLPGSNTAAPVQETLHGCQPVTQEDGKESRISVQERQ

B1: DARPin WT_(CD40) binding the human CD40 receptor (designed binder)
chain: GSDLGKKLLQAARAGQLDEVRELLKAGADVNAKDTWGFTPLHIAAESGHLEIVEVLLKAGADVNAKDVQGRTPLHIAAHSGHLEIVEVLLKAGADVNAKDFRGWTPLHLAAWSGHLEIVEILLKAGADVNAQDKSGKTPADLAARAGHQDIAEVLQKAA
- Kd: 288 nM

From article PMC12087824 (2025)
